Reference: PMC4538836, “Human DNA ligase III bridges two DNA ends to promote specific intermolecular DNA end joining”

T1: DNA ligase III beta (LigIII) (Homo sapiens, UniProt P49916-4 1-862)
T1 sequence: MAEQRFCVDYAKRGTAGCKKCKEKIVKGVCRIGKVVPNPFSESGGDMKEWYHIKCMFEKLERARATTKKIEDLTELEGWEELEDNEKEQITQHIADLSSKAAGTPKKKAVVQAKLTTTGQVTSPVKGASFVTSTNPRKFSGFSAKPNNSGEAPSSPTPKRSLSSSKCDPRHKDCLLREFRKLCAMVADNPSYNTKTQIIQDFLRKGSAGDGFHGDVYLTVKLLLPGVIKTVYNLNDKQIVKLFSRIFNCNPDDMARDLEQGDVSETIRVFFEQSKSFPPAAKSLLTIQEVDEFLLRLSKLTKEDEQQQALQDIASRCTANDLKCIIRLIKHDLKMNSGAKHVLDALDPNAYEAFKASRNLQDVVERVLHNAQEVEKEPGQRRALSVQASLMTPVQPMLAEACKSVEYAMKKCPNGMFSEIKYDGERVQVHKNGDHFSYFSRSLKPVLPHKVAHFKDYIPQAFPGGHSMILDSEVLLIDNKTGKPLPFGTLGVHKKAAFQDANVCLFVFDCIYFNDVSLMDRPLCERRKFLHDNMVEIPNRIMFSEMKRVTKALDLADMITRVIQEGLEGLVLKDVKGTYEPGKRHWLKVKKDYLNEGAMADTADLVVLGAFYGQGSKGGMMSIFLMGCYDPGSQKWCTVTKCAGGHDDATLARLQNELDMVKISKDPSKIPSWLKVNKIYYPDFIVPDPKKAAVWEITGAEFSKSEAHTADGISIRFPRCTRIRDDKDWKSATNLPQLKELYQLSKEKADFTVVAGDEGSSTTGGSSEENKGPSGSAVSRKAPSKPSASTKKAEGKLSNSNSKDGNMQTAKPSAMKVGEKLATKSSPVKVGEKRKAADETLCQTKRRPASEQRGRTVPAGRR

B1: bridged pair, blunt ends (dsDNA)
DNA 1: AGTGAATTCGAGCTCG
DNA 2: CGAGCTCGAATTCACT
DNA 3: CATGATTACGG
DNA 4: CCGTAATCATG
B2: FITC blunt duplex (dsDNA)
DNA 1: CATGATTACGG
DNA 2: CCGTAATCATG

Columns and labels:
[1] = biological target: T1, DNA ligase III beta (LigIII); assay: TR-FRET; DNA bridging; 5 mM Mg2+, 1 mM ATP; 50 mM HEPES-NaOH pH 7.5, 80 mM NaCl, 5 mM MgCl2, 1 mM DTT, 1 mM ATP, 50 ug/ml BSA; anisotropy 25 C (25 nM DNA), TR-FRET room temperature, pull-down 4 C; details: protein: recombinant; tags: N-terminal His (pQE32); label: 5'-biotin on S1; 5'-FITC on S3; two blunt duplexes
[2] = biological target: T1, DNA ligase III beta (LigIII); assay: fluorescence anisotropy; stoichiometric titration, 1 LigIII : 2 DNA; 50 mM HEPES-NaOH pH 7.5, 80 mM NaCl, 5 mM MgCl2, 1 mM DTT, 1 mM ATP, 50 ug/ml BSA; anisotropy 25 C (25 nM DNA), TR-FRET room temperature, pull-down 4 C; details: protein: recombinant; tags: N-terminal His (pQE32); label: 5'-FITC on strand 1; blunt

Binder	binding result [1]	binding result [2]
B1	binds	
B2		binds
